Test results taken from patent publication US20150160214A1, “Quantitation of Cellular Adhesion Dynamics Across Immobilized Receptors Under Rheological Shear Flow” (Mayo Foundation for Medical Education and Research, priority 2013, published 2015).
“Also recorded” adds a separate entry of the source.

B1: N-terminal peptide (QEPGGLVVPPTDAPVSPTTLYVE) corresponding to vWF residues Q1238-E1260 (peptide)
peptide: H-QEPGGLVVPPTDAPVSPTTLYVE-OH
notes: Synthetic peptide; also called free N-terminal peptide; N-terminal linker peptide

Legend:
[1] = target: T1, platelet GPIbα (Homo sapiens, UniProt P07359); assay: Platelet adhesion to surface captured disulfide-intact A1 and RCAM A1 under shear flow (Example 2); assay type: cell-based
T1 construct: endogenous in cells; host or cells: platelets in citrated whole blood of normal healthy volunteer donors
Description: The interaction of disulfide-intact A1 and of RCAM A1 with platelets was studied by immobilizing the proteins via the 6×His-Tag on Cellix biochips in which the internal channel surface was coated with a Cu2+ chelating chemistry. A 5 μM concentration of protein was immobilized in the biochip and citrated whole blood was perfused at a shear rate of 800 s−1 (FIG. 11B). This perfusion was followed by TBS buffer and after red blood cells cleared the channel, the shear was decremented to 100 s−1 or incremented to 9000 s−1 every two minutes at logarithmic intervals. Surface bound platelets were allowed to equilibrate at a given shear rate for 50 s and a 60 s video at 24 frames per second was recorded and analyzed as described in the methods. The internal channel surface lacking immobilized A1 domain was completely inert to platelets.
At each shear rate, platelet mean pause times and mean translocation velocities were calculated from the X-Y trajectories of moving platelets as described in the methods. Approximately 1000 platelet trajectories were analyzed at each shear rate (FIGS. 11B to 11D). The mean pause times were also calculated from the pause time survival fraction obtained from the cumulative integral of the pause time distribution (FIG. 11B) (Thomas:2006). The survival fraction exponentially decreases with faster decay rates as shear increases. Fitting the survival fraction with a bi-exponential decay function results in the apparent rate constants and amplitudes as a function of shear rate (FIG. 11C).
The determination and analysis of platelet pause times and instantaneous translocation velocities over surface captured A1 and RCAM A1 was performed as previously described (Tischer:2013). Here, the inventor used the Cellix Mims Evo syringe pump controlled by VenaFluxAssay (www.cellixltd.com). Vena8™ CGS biochips were custom designed with 800 μm width by 80 μm height microchannels bonded to glass slides with a Cu^2+ chelated PEG surface serviced by Microsurfaces Inc. (www.proteinslides.com/histag.html) to which the A1 and RCAM A1 in TBS were captured by the 6×His-Tag at a total concentration of 5 μM. Citrated whole blood was obtained from the informed consent of healthy volunteer donors with approval from the Mayo Clinic Institutional Review Board and 100 μL was perfused over the surface captured A1 domains at […]. The shear was increased or decreased in a stepwise manner to measure the dynamics of platelet adhesion at high and low shear. After allowing the flow chamber to equilibrate for 50 s at each shear rate, 1 min movies were recorded at 24 frames per second in phase contrast at 200× magnification with 2×2 pixel binning on a Zeiss AxioCam Mrm camera (6.45 μm/px) attached to a Zeiss Axio Observer.D1 inverted microscope. Tracking analysis was performed using MediaCybernetics ImagePro® Premier (www.mediacy.com/index.aspx?page=IP\_Premier) The distance travelled in the direction of flow was calculated from the coordinate data for each platelet as a function of time using √{square root over ((xt−x0)^2)}, where x0 is the coordinates of a platelet on the first frame of the movie and xt is the coordinate on subsequent frames of the movie. These trajectories were differentiated into instantaneous velocities using a Savitzky-Golay algorithm (Savitzky:1964) with a five data point window size and a second order polynomial implemented into a Mathematica (www.wolfram.com/mathematica) notebook written in our lab. Trajectories were retained for statistical analysis if the platelet was present for ≧1 s and travelled a total distance greater than 1 Distance travelled in pixels (px) was converted to (μm) using 6.45 μm/px*2/200=0.0645 μm/px. Pause times were determined by the amount of time (sec) a platelets velocity was 0±4 px/s≅0±0.23 μm/s, within the noise. Data are reported as mean velocities and pause times attained by individual platelets averaged over all platelets analyzed. […]

[2] = Secondary structure contribution calculated from CD-spectra (CDNN); assay type: physicochemical; details: calculated from CD-spectra, CDNN
Description: Fluorescence and circular dichroism spectra of A1 and of RCAM A1 were measured to compare the basic spectroscopic properties of the two protein variants (FIG. 13). The fluorescence spectrum of native A1 has a relatively low intensity with λmax of ˜345 nm. In presence of 2 M GdnHCl the fluorescence intensity increases as the interior of the protein becomes solvent accessible and a red shift of the spectrum to ˜351 nm occurs. […] Nevertheless, RCAM A1 is still retains significant secondary structure content in solution; the distribution of which is summarized in Table 1. In the near UV, the CD of disulfide-intact A1 show a well-defined spectral banding pattern between 260 and 300 nm indicating significant tertiary structure content that is absent in RCAM A1.
(§1) Urea and GdnHCl induced unfolding of A1 and of RCAM A1 at 25° Celsius was monitored via CD at 222 nm on an Aviv Biomedical Model 420C circular dichroism spectrometer. A 1 mm quartz cuvette and protein concentrations of 5 or 10 μM were used. Samples were equilibrated in their urea or GdnHCl containing buffer at 25° Celsius overnight. CD-signal was averaged for 5 to 10 min using an integration time of 1 s. CD-spectra were measured at 20° Celsius using 0.1 or 1 mm quartz cells with a step width of 1 nm between 190 and 260 nm with an integration time of 20 s and a bandwidth of 1 nm. CD-spectra in the near UV range (260-360 nm) were recorded using a 5 cm quartz cell with a 120 s integration time. Transition curves and protein spectra were corrected for the CD Signal of the corresponding buffer.

[3] = GdnHCl- and urea-induced unfolding at 25° C. by circular dichroism (Example 2); assay type: physicochemical; details: GdnHCl, CD
Description: The thermodynamic stability of A1 and of RCAM A1 was determined from GdnHCl and urea induced unfolding measured via CD and FL at 25° Celsius (FIG. 14). […] Complete unfolding of A1 and of RCAM A1 occurs in GdnHCl but not in urea. However, in presence of urea, a small expansion of RCAM A1 compared to A1 in its intermediate state is observed.
as §1

[4] = Irreversible thermal denaturation by CD, intrinsic fluorescence and ANS fluorescence (Example 2); assay type: physicochemical
Description: The unfolding of disulfide-intact A1 and RCAM A1 was also monitored via CD at 222 nm, intrinsic protein fluorescence at 280 nm/359 nm and ANS fluorescence at 350 nm/495 nm as a function of temperature.
CD thermalscans were recorded between 10 and 95° Celsius at 222 nm with a protein concentration of 1 μM in a 1 cm quartz cell under moderate stirring. Prior to each measurement protein samples were equilibrated at 10° Celsius for 10-15 min in order to obtain a stable baseline. The scanrate for all Thermalscans was 2° Celsius/min. The integration time for each data point was 20 s, the bandwidth 1 nm. All measured CD data were converted into mean molar ellipticities per amino acid residue.
Thermalscans monitoring protein fluorescence were recorded at an emission wavelength of 359 nm after excitation at 280 nm using a protein concentration of 2 μM in a 1 cm quartz cell under moderate stirring. ANS-Thermalscans were recorded at 495 nm after Excitation at 350 nm using 1 μM protein and 100 μM ANS. Prior to any performed thermalscan samples were equilibrated for 10-15 min. The scanrate was 2° Celsius/min. At each temperature between 10 or 20° Celsius and 95° Celsius relative fluorescence intensity was collected for 4 s and averaged.

[5] = Acrylamide quenching of tryptophan fluorescence (Stern-Volmer); assay type: physicochemical; details: buffer, 20° Celsius
Description: This was also confirmed via acrylamide induced tryotophan fluorescence quenching performed with an excitation wavelength of 295 nm.
Initially a quenching determination was performed with disulfide-intact A1 at 20° Celsius and at 1° Celsius in order to distinguish between static and collisional quenching. […] Clear evidence for collisional quenching could be obtained for the A1-domain since the Stern-Volmer constant decreased from 2.6±0.03 to 2.2±0.03 M−1, FIG. 16A, ruling out a static quenching mechanism.
Acrylamide quenching of tryptophan was performed using an excitation wavelength of 295 nm. After the addition of a certain amount of buffered acrylamide solution the protein solution was equilibrated for ˜5 min and then a fluorescence spectrum between 320 and 400 nm was recorded. Stern-Volmer constants were determined from the fluorescence intensity at 359 nm using the Stern-Volmer equation as described by Lakowicz (Lakowicz:2006)
where KD is the Stern-Volmer quenching constant and KD-1 is the concentration of acrylamide at which F0/F=2 and 50% of the fluorescence intensity is quenched.

[6] = Solubility (observation); assay type: physicochemical
[7] = target: T2, Recombinant human vWF A1-1261 (amino acids D1261-P1471), N-terminal truncated variant (human, UniProt P04275 1261-1471); assay: thermal unfolding by Trp fluorescence at 2 °C/min; value without peptide
T2 construct: Lacks the linker residues Q1238-E1260; also called truncated A1
Excerpt: (§2) The only way to examine such a stabilization using spectroscopy was the measurement of thermal unfolding via fluorescence. Since the N-terminal peptide also contains a single tyrosine residue, the excitation wavelength was changed to λ=295 nm in order to measure tryptophan fluorescence and the effect of the peptide on the unfolding of the A1-domain was observed indirectly. […] Thermal scans were also done in the presence of a peptide with the same amino acid composition, but a scrambled sequence. The inset of FIG. 7A compares the raw fluorescence thermal scans in the presence of 300 μM scrambled and N-terminal peptides. Unfolding in the presence of excess scrambled peptide was equivalent to unfolding in the absence of either peptide. […] Fitting the enthalpy data to a simple single site binding model yields a dissociation constant of ≈46±6 μM.

[8] = target: T2, Recombinant human vWF A1-1261 (amino …); assay: thermal unfolding by Trp fluorescence at 2 °C/min; value at saturating peptide
Excerpt: as §2

[9] = target: T2, Recombinant human vWF A1-1261 (amino …); assay: thermal unfolding by Trp fluorescence, 0.02-300 µM peptide; value without peptide
Excerpt: as §2

[10] = target: T2, Recombinant human vWF A1-1261 (amino …); assay: thermal unfolding by Trp fluorescence, 0.02-300 µM peptide; value at saturating peptide
Excerpt: as §2

[11] = target: T3, Recombinant human vWF A1-1238 (amino acids Q1238-P1471) (human, UniProt P04275 1238-1471); assay: unfolding enthalpy from fluorescence thermal scans of A1-1238 against total peptide concentration
T3 construct: captured on Cu2+ chelate surfaces by the His tag in the flow chamber assays; also called WT A1; disulfide-intact A1; not shown: N-terminal 6xHis-Tag from the Qiagen pQE-9 vector

[12] = target: T2, Recombinant human vWF A1-1261 (amino …); assay: unfolding enthalpy from fluorescence thermal scans of 2 µM A1-1261 against total peptide concentration
Excerpt: as §2

[13] = target: T2, Recombinant human vWF A1-1261 (amino …); assay: thermal unfolding enthalpy of 2 µM A1-1261 (Trp fluorescence) against peptide concentration, single site binding model
Excerpt: as §2

| Molecule | Total number of platelets interacting, relative to disulfide-intact A1 [1] | Velocity of a platelet translocating on the domain ([1]; 1025 s−1) | Platelet translocation on surface-immobilized domain ([1]; all applied shear rates, up to 9000 s−1) | % α-Helix [2] | % β-sheet [2] | cm, I ⇄ D [3] | m-value, I ⇄ D [3] | ΔG^0, I ⇄ D [3] | Cooperative thermal unfolding transition ([4]; CD, intrinsic fluorescence and ANS fluorescence) | Temperature at which protein aggregation begins in thermal scan ([4]; absence of urea) | Stern-Volmer constant [5] | Solubility [6] | apparent TM of A1-1261 without and with saturating peptide [7] | apparent TM of A1-1261 without and with saturating peptide [8] | unfolding enthalpy of A1-1261 without and with saturating peptide [9] | unfolding enthalpy of A1-1261 without and with saturating peptide [10] | binding result [11] | EC50 (read off the curve) [12] | Kd [13] |
| --- | --- | --- | --- | --- | --- | --- | --- | --- | --- | --- | --- | --- | --- | --- | --- | --- | --- | --- | --- |
| RCAM A1: vWF A1 domain (Q1238-P1471) with disulfide bond reduced and carboxyamidated; molten globule model of intermediate state | less, by approximately half | statistically zero | did not translocate across the surface at all applied shear rates; also recorded: firm adhesion with no platelet translocation | 25% | 22% | 3.83 ± 0.03 M | −7.49 ± 0.49 kJ/mol/M | 6.857 ± 0.452 kcal/mol | absent | ~40 ° Celsius | 5.6 ± 0.4 M⁻¹ | low solubility | – | – | – | – | – | – | – |
| B1 | – | – | – | – | – | – | – | – | – | – | – | – | 53 ° Celsius | 55.5 ° Celsius | 47.1 kcal/mol | 57.8 kcal/mol | no binding (tested: 100 µM) | ~30 µM | ~46 µM |
